The values that follow come from patent US20240350600A1.

The target in this assay is cell-bound IgE on basophils of peanut-allergic subjects. The experiment in a line: cell-based or functional assay.

For NNFGKLFEVKPDKKNPQLQ [Ara h 1 combined epitope peptide (409-427)], the percentage of activated basophils, one subject worked out at 8%.
